Among the targets are YFP (UniProt P42212); mVenus (UniProt P42212); sfGFP (super folder GFP) (UniProt P42212).
Holding throughout (test): ITC
In general terms: In ITC the heat of successive injections is recorded.

The target of series [1] is mEGFP (monomeric enhanced GFP) (UniProt P42212).

Here are results for 1 sequence from PMC7895908.

As usually defined, the Kd is the equilibrium constant for the complex coming apart.

For “GGGAGCUUCUGGACUGCGAUGGGAGCACGAAACGUCGUGGCGCAAUUGGGUGGGGAAAGUCCUUAAAAGAGGGCCACCACAGAAGCUCCC [free RNA aptamer against GFP family]”, the dissociation constant (Kd) was 4 nM with YFP, 5 nM in series [1], 5 nM with mVenus and 13 nM in the series with sfGFP (super folder GFP).
